From US11667688B2, “Glucagon derivative and a composition comprising a long acting conjugate of the same” (HANMI PHARM. CO., LTD., priority 2015, dated 2023)
Bridge positions count the residues as written; N and C are the ends. Square brackets hold non-standard residues; d marks the D form. Ends that are not written are not given here. Aib = CC(C)(N)C(=O)O

target: T1, human glucagon receptors (Homo sapiens, UniProt P47871); assay: cAMP activity of glucagon derivatives in CHO cell line transfected with human glucagon receptor (LANCE cAMP kit); format: cell-based; details: cAMP EC50 compared with that of native glucagon; CHO cells with human glucagon receptor
T1 construct: a region corresponding to Open Reading Frame (ORF) in the cDNA; expressed in transfected cells
Experimental: PCR was performed using a region corresponding to Open Reading Frame (ORF) in the cDNA (OriGene Technologies, Inc., USA) of human glucagon receptor gene as a template along with the following forward and reverse primers (SEQ ID NOS: 47 and 48, respectively), which include each of the EcoRI and XhoI restriction sites.
The PCR product was cloned into a known animal cell expression vector, x0GC/dhfr, to prepare a recombinant vector x0GC/GCGR.
CHO DG44 cell line cultured in DMEM/F12 (10% FBS) medium was transfected with the recombinant vector x0GC/GCGR using LIPOFECTAMINE®, and cultured in a selection medium containing G418 (1 mg/mL) and methotraxate (10 nM).
Specifically, the transfected cell line was subcultured 3 to 4 times a week, aliquoted into a 384-well plate in an amount of 6×10^3 cell lines/well, and cultured for 24 hours. Native glucagon and glucagon derivatives were suspended in Hank's balanced salt solution (HBSS) buffer containing 0.5 mM of 3-isobutyl-1-methylxanthine (IBMX), 0.1% bovine serum albumin (BSA), and 5 mM 4-(2-hydroxyethyl)-1-piperazineethanesulfonic acid (HEPES) with the culture cells, at concentrations of 200 nM and 1600 nM, respectively, continuously subjected into a 4-fold dilution 10 times, applied to a cAMP assay kit (LANCE cAMP 384 kit, PerkinElmer), and added to the cultured cells, and their fluorescence value was measured.

T1 sequence (P47871 26-477): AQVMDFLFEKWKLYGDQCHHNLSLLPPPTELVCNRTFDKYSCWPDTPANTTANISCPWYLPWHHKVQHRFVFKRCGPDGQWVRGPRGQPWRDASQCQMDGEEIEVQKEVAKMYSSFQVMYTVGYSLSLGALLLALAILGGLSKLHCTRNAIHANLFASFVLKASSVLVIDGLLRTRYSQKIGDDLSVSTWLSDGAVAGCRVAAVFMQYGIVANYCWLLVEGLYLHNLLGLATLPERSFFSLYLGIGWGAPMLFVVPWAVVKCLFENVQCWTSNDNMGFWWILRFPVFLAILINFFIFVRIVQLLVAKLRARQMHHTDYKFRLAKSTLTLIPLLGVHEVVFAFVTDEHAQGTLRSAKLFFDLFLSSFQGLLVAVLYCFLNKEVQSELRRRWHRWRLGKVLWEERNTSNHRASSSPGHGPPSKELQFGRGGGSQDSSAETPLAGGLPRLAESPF

In order of falling “In vitro Activity (Relative Activity of SEQ ID NO: 1, %)” value:
1. YXQGTFTSDYSKYLDECRAKEFVQWLMNT (Y[Aib]QGTFTSDYSKYLDECRAKEFVQWLMNT; bridge 16-20) [SEQ ID NO: 20, glucagon derivative, X = Aib]  299.7%
2. YXQGTFTSDYSKYLDERRAKEFVQWLMNTC (Y[Aib]QGTFTSDYSKYLDERRAKEFVQWLMNTC; bridge 16-20) [SEQ ID NO: 37, glucagon derivative, X = Aib]  225.5%
3. YXQGTFCSDYSKYLDERRAKEFVQWLMNT (Y[Aib]QGTFCSDYSKYLDERRAKEFVQWLMNT; bridge 16-20) [SEQ ID NO: 38, glucagon derivative, X = Aib]  167.3%
4. YXQGTFTSDYSKYLDEKRCKEFVQWLMNT (Y[Aib]QGTFTSDYSKYLDEKRCKEFVQWLMNT; bridge 16-20) [SEQ ID NO: 22, glucagon derivative, X = Aib]  147.8%
5. YXQGTFTSDYSKYLDSRRAQDFVQWLMNT (Aib at position 2; glucagon derivative; (2) Xaa is aminoisobutyric acid (Aib)) [SEQ ID NO: 33, glucagon derivative, X = Aib]  108.2%
6. YXQGTFVSDYSKYLDECRAKDFVQWLMNT (Y[Aib]QGTFVSDYSKYLDECRAKDFVQWLMNT; bridge 16-20) [SEQ ID NO: 27, glucagon derivative, X = Aib]  93.6%
7. YXQGTFTSDYSKYCDEKRAKEFVQWLMNT (Y[Aib]QGTFTSDYSKYCDEKRAKEFVQWLMNT; bridge 16-20) [SEQ ID NO: 23, glucagon derivative, X = Aib]  76.8%
8. YXQGTFTSDYSKYLDSRRAQDFVQWLMNTC (Aib at position 2; glucagon derivative; (2) Xaa is aminoisobutyric acid (Aib)) [SEQ ID NO: 44, glucagon derivative, X = Aib]  75.4%
9. YXQGTFTSDYSKCLDERRAKDFVQWLMNT (Y[Aib]QGTFTSDYSKCLDERRAKDFVQWLMNT; bridge 16-20) [SEQ ID NO: 29, glucagon derivative, X = Aib]  61.3%
10. YXQGTFTSDYSKCLDEKRAKEFVQWLMNT (Y[Aib]QGTFTSDYSKCLDEKRAKEFVQWLMNT; bridge 16-20) [SEQ ID NO: 24, glucagon derivative, X = Aib]  58.0%
11. YXQGTFTSDYSKYLDEKCAKEFVQWLMNT [SEQ ID NO: 21] (Y[Aib]QGTFTSDYSKYLDEKCAKEFVQWLMNT; bridge 16-20) [glucagon derivative, X = Aib]  57.8%
12. YXQGTFTSDYSKYLDEKRAKEFVQWLMNTC (Y[Aib]QGTFTSDYSKYLDEKRAKEFVQWLMNTC; bridge 16-20) [SEQ ID NO: 12, glucagon derivative, X = Aib]  56.3%
13. YXQGTFTSDYSKYLDEKRAKCFVQWLMNT (Y[Aib]QGTFTSDYSKYLDEKRAKCFVQWLMNT; bridge 16-20) [SEQ ID NO: 25, glucagon derivative, X = Aib]  46.9%
14. YXQGTFCSDYSKYLDERRAKDFVQWLMNT (Y[Aib]QGTFCSDYSKYLDERRAKDFVQWLMNT; bridge 16-20) [SEQ ID NO: 41, glucagon derivative, X = Aib]  45.2%
15. YXQGTFVSDYSKYLDERRAKDFVQWLMNTC (Y[Aib]QGTFVSDYSKYLDERRAKDFVQWLMNTC; bridge 16-20) [SEQ ID NO: 40, glucagon derivative, X = Aib]  40.8%
16. YXQGTFCSDYSKYLDSRRAQDFVQWLMNT (Y[Aib]QGTFCSDYSKYLDSRRAQDFVQWLMNT) [SEQ ID NO: 42, glucagon derivative, X = Aib]  37.9%
17. YXQGTFTSDYSKYLDCVRAQDFVQWLMRT (Y[Aib]QGTFTSDYSKYLDCVRAQDFVQWLMRT) [SEQ ID NO: 17, glucagon derivative, X = Aib]  23.2%
18. YXQGTFTSDYSKYLDCKRAKEFVQWLMNT [SEQ ID NO: 14] (Y[Aib]QGTFTSDYSKYLDCKRAKEFVQWLMNT; not fully specified) [glucagon derivative, X = Aib]  18.1%
19. YXQGTFTSDYSKYCDERRAKEFVQWLMNT (Y[Aib]QGTFTSDYSKYCDERRAKEFVQWLMNT; bridge 16-20) [SEQ ID NO: 35, glucagon derivative, X = Aib]  17.7%
20. YXQGTFTSDYSKYLCEKRAKEFVQWLMNT (Y[Aib]QGTFTSDYSKYLCEKRAKEFVQWLMNT; bridge 16-20) [SEQ ID NO: 19, glucagon derivative, X = Aib]  12.1%
21. YXQGTFTSDCSKYLDERRAKEFVQWLMNT (Y[Aib]QGTFTSDCSKYLDERRAKEFVQWLMNT; bridge 16-20) [SEQ ID NO: 36, glucagon derivative, X = Aib]  9.9%
22. YXQGTFTSDYSKYLDCKRAKEFVQWLMNT (Y[Aib]QGTFTSDYSKYLDCKRAKEFVQWLMNT; bridge 17-21) [SEQ ID NO: 31, glucagon derivative, X = Aib]  6.3%
23. HSQGTFTSDYSKYLDCERAQDFVQWLMNT (glucagon derivative) [SEQ ID NO: 3]  6.1%
24. YXQGTFTSDYSCYLDSRRAQDFVQWLMNT (Y[Aib]QGTFTSDYSCYLDSRRAQDFVQWLMNT) [SEQ ID NO: 13, glucagon derivative, X = Aib]  5.2%
25. YXQGTFTSDYSKYLDEKCAKEFVQWLMNT [SEQ ID NO: 11] (Y[Aib]QGTFTSDYSKYLDEKCAKEFVQWLMNT; not fully specified) [glucagon derivative, X = Aib]  4.6%
26. YXQGTFVSDCSKYLDERRAKDFVQWLMNT (Y[Aib]QGTFVSDCSKYLDERRAKDFVQWLMNT; bridge 16-20) [SEQ ID NO: 39, glucagon derivative, X = Aib]  3.7%
27. YXQGTFTSDCSKYLDSRRAQDFVQWLMNT (Y[Aib]QGTFTSDCSKYLDSRRAQDFVQWLMNT) [SEQ ID NO: 43, glucagon derivative, X = Aib]  1.6%
28. YXQGTFTSDYSKYLCEKRAQDFVVWLMNT (Y[Aib]QGTFTSDYSKYLCEKRAQDFVVWLMNT) [SEQ ID NO: 15, glucagon derivative, X = Aib]  1.1%
29. WXQGTFTSDYSKYLDECRAKDFVQWLMNT (W[Aib]QGTFTSDYSKYLDECRAKDFVQWLMNT; bridge 16-20) [SEQ ID NO: 26, glucagon derivative, X = Aib]  1.0%
30. -SQGTFTSDYSKYLDECRAKEFVQWLMNT (bridge 15-19; also: name begins with '-': N-terminal residue before chain not given here) [SEQ ID NO: 32, glucagon derivative, no residue at position 1]  0.7%
31. WXQGTFTSDYSKCLDERRAKDFVQWLMNT (W[Aib]QGTFTSDYSKCLDERRAKDFVQWLMNT; bridge 16-20) [SEQ ID NO: 30, glucagon derivative, X = Aib]  0.3%
32. HSQGTFTSDYSKYLDSCEAQDFVQWLMNT (glucagon derivative) [SEQ ID NO: 5]  0.3%

In the case of “HSQGTFTSDYSKYLDSCEADDFVQWLMNT (glucagon derivative) [SEQ ID NO: 6]”, the “In vitro Activity (Relative Activity of SEQ ID NO: 1, %)” value is reported as under 0.1%.
With “WXQGTFVSDYSKYLDECRAKDFVQWLMNT (W[Aib]QGTFVSDYSKYLDECRAKDFVQWLMNT; bridge 16-20) [SEQ ID NO: 28, glucagon derivative, X = Aib]” the “In vitro Activity (Relative Activity of SEQ ID NO: 1, %)” value was under 0.1%.
With “YXQGTFTSDYSKYLDSCDADDFVVWLINT (Y[Aib]QGTFTSDYSKYLDSCDADDFVVWLINT) [SEQ ID NO: 10, glucagon derivative, X = Aib]” the “In vitro Activity (Relative Activity of SEQ ID NO: 1, %)” value was under 0.1%.
In the case of “YXQGTFTSDYSKYLDSCDAQDFVQWLINT (Y[Aib]QGTFTSDYSKYLDSCDAQDFVQWLINT) [SEQ ID NO: 8, glucagon derivative, X = Aib]”, the “In vitro Activity (Relative Activity of SEQ ID NO: 1, %)” value is reported as under 0.1%.
With “YSQGTFTSDYSKYLDSCEADDFVQWLMNT (glucagon derivative) [SEQ ID NO: 7]” the “In vitro Activity (Relative Activity of SEQ ID NO: 1, %)” value was under 0.1%.
In the case of “YXQGTFTSDYSKYLDSCDAQDFVVWLINT (Y[Aib]QGTFTSDYSKYLDSCDAQDFVVWLINT) [SEQ ID NO: 9, glucagon derivative, X = Aib]”, the “In vitro Activity (Relative Activity of SEQ ID NO: 1, %)” value is reported as under 0.1%.
“YXQGTFTSDYSKYLDSRRACDFRLWLMNT (Y[Aib]QGTFTSDYSKYLDSRRACDFRLWLMNT) [SEQ ID NO: 18, glucagon derivative, X = Aib]” was tested, and the “In vitro Activity (Relative Activity of SEQ ID NO: 1, %)” value was under 0.1%.
For “HSQGTFTSDYSKYLDSCDAQDFVQWLMNT (glucagon derivative) [SEQ ID NO: 4]”, the “In vitro Activity (Relative Activity of SEQ ID NO: 1, %)” value was under 0.1%.
